Patent US20250034275A1 (CHIA TAI TIANQING PHARMACEUTICAL GROUP, published 2025)
Residue numbers refer to the chain shown, from its start. One block for each molecule: values may come before it.

How the values were obtained:
[1] = biological target: human Trop-2 (on the surface of human cell lines) (human) (UniProt P09758); test: flow cytometry, PC-3 cells, isotype control at 3 ug/mL (background)
[2] = biological target: human Trop-2 (on the surface of human cell lines) (human) (UniProt P09758); test: flow cytometry, Capan-1 cells, isotype control at 3 ug/mL (background)
[3] = biological target: human Trop-2 (on the surface of human cell lines) (human) (UniProt P09758); test: flow cytometry, NCI-H322 cells, isotype control at 3 ug/mL (background)
[4] = biological target: human Trop-2 (on the surface of human cell lines) (human) (UniProt P09758); test: flow cytometry, HUVEC cells, isotype control at 3 ug/mL (background)
[5] = biological target: human Trop-2 (on the surface of human cell lines) (human) (UniProt P09758); test: flow cytometry, OVCAR-3 cells, isotype control at 3 ug/mL (background)
[6] = biological target: human Trop-2 (on the surface of human cell lines) (human) (UniProt P09758); test: flow cytometry, HCC38 cells, isotype control at 3 ug/mL (background)
[7] = biological target: human Trop-2 (on the surface of human cell lines) (human) (UniProt P09758); test: flow cytometry, HCC1806 cells, isotype control at 3 ug/mL (background)
[8] = biological target: T1, human Trop-2 (on the surface of human cell lines) (human, UniProt P09758 27-323); test: cell-based or functional assay
T1 sequence: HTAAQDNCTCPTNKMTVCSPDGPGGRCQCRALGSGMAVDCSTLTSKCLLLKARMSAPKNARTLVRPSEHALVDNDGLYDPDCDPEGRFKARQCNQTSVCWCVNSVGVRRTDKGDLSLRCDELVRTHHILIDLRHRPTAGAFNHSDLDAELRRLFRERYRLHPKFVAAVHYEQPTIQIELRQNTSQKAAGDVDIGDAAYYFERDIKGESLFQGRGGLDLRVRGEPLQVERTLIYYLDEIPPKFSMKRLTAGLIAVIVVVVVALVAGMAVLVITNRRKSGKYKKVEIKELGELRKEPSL

[9] = biological target: T2, Macaque Trop-2-His (macaque, UniProt P09758 27-274 (human entry)); test: ELISA, plate-coated macaque Trop-2-His
T2 construct: Extracellular domain of macaque Trop-2 recombinantly linked to His; also called monkey Trop-2-His protein; monkey Trop-2
T2 chain: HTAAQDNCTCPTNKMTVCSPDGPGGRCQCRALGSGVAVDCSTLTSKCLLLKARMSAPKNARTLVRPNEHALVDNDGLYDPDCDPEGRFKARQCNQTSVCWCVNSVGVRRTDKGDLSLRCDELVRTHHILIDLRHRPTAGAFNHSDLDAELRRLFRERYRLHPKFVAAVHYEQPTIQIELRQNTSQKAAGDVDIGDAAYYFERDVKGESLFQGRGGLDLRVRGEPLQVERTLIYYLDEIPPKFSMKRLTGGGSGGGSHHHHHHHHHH
Experimental: (§1) After the liquid was discarded, 2% BSA (SIGMA, B2064-100G) diluted with PBS was added at 300 μL/well for blocking, and the mixture was incubated at 37° C. for 2 h. After the blocking was completed, the blocking buffer was discarded, the plate was washed 3 times with the PBST buffer (pH 7.4 PBS containing 0.1% tween-20), the antibody solution diluted in a gradient was added at 100 μL/well, and the mixture was incubated at 37° C. for 1 h. After the incubation was completed, the plate was washed 3 times with PBST, the goat anti-human IgG (H+L) (JacksonImmunoResearch, 109-035-098, 1:5000 dilution) was added at 100 μL/well, and the mixture was incubated at 37° C. for 1 h. After the plate was washed 3 times with PBST, a TMB chromogenic substrate (TIANGEN, PA107-01) was added at 100 μL/well. The mixture was incubated at room temperature for 10-15 min, and then 1 M H₂SO₄ was added at 50 μL/well to terminate the reaction. The absorbance values at 450 nm were taken using a microplate reader. The binding curves of antibodies for antigen were fitted using software, and the EC₅₀ values were calculated.

[10] = biological target: T1, human Trop-2 (on the surface of human …); test: cell-based or functional assay; remark: listed apart in the source
[11] = biological target: T3, human Trop-2-His (human, UniProt P09758 27-274, limits assumed); test: ELISA, plate-coated human Trop-2-His
T3 construct: by analogy with the macaque construct it is probably the extracellular domain with a His tag; also called Trop-2-His protein
T3 sequence: T2 chain with V36M, N67S, V204I
Experimental: as §1, with “with” for “with the”

[12] = biological target: T3, human Trop-2-His; test: SPR (Biacore 8K), antibody captured, Trop-2-His as analyte
Source text: The affinity of antibodies for human Trop-2-His was detected in the form of antibody capturing. The antibody was affinity-captured by a CM5 (Cat. #29149603, GE) biosensor chip conjugated with an anti-human IgG antibody (from human antibody capture kit, Cat. #29234600, GE), then the antigen human Trop-2-His flowed on the surface of the chip, and a Biacore 8K instrument was used for detecting reaction signals in real time to obtain association and dissociation curves. After dissociation was completed for each assay cycle, the chip was washed clean and regenerated with a regeneration buffer, 3M MgCl₂ (from human antibody capture kit, Cat. #29234600, GE). The association and dissociation curves were collected by Biacore 8K Control Software 3.0 in real time, and the data were analyzed by Biacore Insight Evaluation Software 3.0. The data were fitted using a Langmuir 1:1 model after double subtraction (namely, in each cycle, the contrast channel signal was subtracted from the experimental channel signal, and the sample signal was subtracted from the blank signal), and the association rate constant Ka, the dissociation rate constant Kd, and the equilibrium constant KD were calculated.

[13] = biological target: T1, human Trop-2 (on the surface of human …); test: flow cytometry, HCC38 cells
Experimental: (§2) Tumor cells expressing Trop-2 were prepared into a cell suspension (0.5-1×10⁶ cells/mL) using the FACS buffer (Miltenyi Biotec, 130-091-221), and the cell suspension was added to a 96-well V-bottom plate at 100 μL/well. After centrifugation and removal of the supernatant, the test antibodies diluted with the FACS buffer to different concentrations (0.006 nM-100 nM) were each added at 50 μL/well. The mixture was incubated in the dark in a 4° C. refrigerator for 1 h. The plate was then washed 3 times with the FACS buffer by centrifugation at 300 g, and Alexa Fluor 488 goat anti-human IgG (H+L) (Bio-legend, 409304, 1:500 dilution) at working concentration was added. The mixture was incubated in the dark in a 4° C. refrigerator for 40 min. The plate was then washed 3 times with the FACS buffer by centrifugation at 300 g, the geometric mean fluorescence intensity (MFI) was measured on a Sartorius iQue3 flow cytometer, and the binding EC₅₀ values of the antibodies for tumor cells with different Trop-2 expression levels were calculated

[14] = biological target: T1, human Trop-2 (on the surface of human …); test: flow cytometry, OVCAR-3 cells
Experimental: as §2

[15] = biological target: T1, human Trop-2 (on the surface of human …); test: flow cytometry, HCC1806 cells
Experimental: as §2

MFI [1]: 8920 | MFI [2]: 65600 | MFI [3]: 21300 | MFI [4]: 20500 | MFI [5]: 11800 | MFI [6]: 32400 | MFI [7]: 16200
Molecule: human IgG1 control antibody

ADCC reporter (Jurkat-CD16a v158-NFAT-luciferase), target cell H322, EC50 [8]: 0.15 nM | ADCC reporter (Jurkat-CD16a v158-NFAT-luciferase), target cell HCC1806, EC50 [8]: 0.26 nM | EC50 [9]: 0.081 nM | EC50 [11]: 0.223 nM | Kd [12]: 1.33 nM | koff [12]: 0.000611 s⁻¹ | kon [12]: 460000 M⁻¹ s⁻¹ | EC50 [13]: 0.66 nM | EC50 [14]: 0.8 nM | EC50 [15]: 1.18 nM
B1: hz-Ab21-2.2 (antibody, human IgG1, kappa, V domains shown)
VH: EVQLVESGGGLVKPGGSLRLSCAASGFTLRNYGVHWVRQAPGKGLEWVGVIWSSGTTDYNAAFISRFTISKDNSKNTLYLQMNSLKTEDTAVYYCTRDGDYDYYTMDYWGQGTLVTVSS
VL: EIVLTQSPATLSLSPGERATLSCRASKSVSTSAYSYIHWYQQKPGQPPRLLIYLTSNLESGIPARFSGSGSGTDFTLTISSLEPEDFAVYYCQHSRELPYTFGQGTKVEIKR
notes: Humanized antibody
ADCC, PBMC killing (LDH), H322, EC50 [10]: 0.07 nM | ADCC, PBMC killing (LDH), H322, Maximum killing (%) [10]: 51.6% | ADCC, PBMC killing (LDH), HCC1806, EC50 [10]: 0.18 nM | ADCC, PBMC killing (LDH), HCC1806, Maximum killing (%) [10]: 40.6%

ADCC reporter (Jurkat-CD16a v158-NFAT-luciferase), target cell H322, EC50 [8]: 0.1 nM | ADCC reporter (Jurkat-CD16a v158-NFAT-luciferase), target cell HCC1806, EC50 [8]: 0.23 nM | EC50 [9]: 0.056 nM | EC50 [11]: 0.055 nM | Kd [12]: 0.444 nM | koff [12]: 0.000194 s⁻¹ | kon [12]: 436000 M⁻¹ s⁻¹ | EC50 [13]: 0.89 nM | EC50 [14]: 0.9 nM | EC50 [15]: 0.76 nM
B2: hz-Ab35-2.1 (antibody, human IgG1, kappa, V domains shown)
VH: QVQLVQSGAEVKKPGASVKVSCKASGYTFTSSDINWVRQRPGQGLEWMGWIYPRDGSKKYAQKFQGRVTMTVDTSTSTVYMELSSLRSEDTAVYYCATRFATVVSNYGLDPWGQGTLVTVSS
VL: EIVLTQSPATLSLSPGERATLSCSASSSVNYIYWYQRKPGQAPRLLIYDTSNLASGIPARFSGSGSGTDYTLTISSLEPEDFAVYYCQQWNSYPLTFGQGTKVEIKR
notes: Humanized antibody
ADCC, PBMC killing (LDH), H322, EC50 [10]: 0.02 nM | ADCC, PBMC killing (LDH), H322, Maximum killing (%) [10]: 51.3% | ADCC, PBMC killing (LDH), HCC1806, EC50 [10]: 0.03 nM | ADCC, PBMC killing (LDH), HCC1806, Maximum killing (%) [10]: 35.2%

ADCC reporter (Jurkat-CD16a v158-NFAT-luciferase), target cell H322, EC50 [8]: 0.11 nM | ADCC reporter (Jurkat-CD16a v158-NFAT-luciferase), target cell HCC1806, EC50 [8]: 0.26 nM | EC50 [9]: 0.05 nM | EC50 [11]: 0.054 nM | Kd [12]: 8.82 nM | koff [12]: 0.00357 s⁻¹ | kon [12]: 405000 M⁻¹ s⁻¹ | EC50 [13]: 0.91 nM | EC50 [14]: 0.88 nM | EC50 [15]: 0.58 nM
B3: hz-Ab35-2.2 (antibody, human IgG1, kappa, V domains shown)
VH: B2 VH with A61N, Q62E, Q65K, T98R
VL: B2 VL
notes: Humanized antibody
ADCC, PBMC killing (LDH), H322, EC50 [10]: 0.01 nM | ADCC, PBMC killing (LDH), H322, Maximum killing (%) [10]: 51.4% | ADCC, PBMC killing (LDH), HCC1806, EC50 [10]: 0.02 nM | ADCC, PBMC killing (LDH), HCC1806, Maximum killing (%) [10]: 35.9%

ADCC reporter (Jurkat-CD16a v158-NFAT-luciferase), target cell H322, EC50 [8]: 0.11 nM | ADCC reporter (Jurkat-CD16a v158-NFAT-luciferase), target cell HCC1806, EC50 [8]: 0.21 nM | EC50 [9]: 0.031 nM | EC50 [11]: 0.065 nM | Kd [12]: 0.675 nM | koff [12]: 0.000281 s⁻¹ | kon [12]: 416000 M⁻¹ s⁻¹ | EC50 [13]: 0.91 nM | EC50 [14]: 0.74 nM | EC50 [15]: 0.61 nM
B4: hz-Ab35-2.3 (antibody, human IgG1, kappa, V domains shown)
VH: B2 VH with A61N, Q62E, Q65K
VL: B2 VL
notes: Humanized antibody
ADCC, PBMC killing (LDH), H322, EC50 [10]: 0.02 nM | ADCC, PBMC killing (LDH), H322, Maximum killing (%) [10]: 50.3% | ADCC, PBMC killing (LDH), HCC1806, EC50 [10]: 0.03 nM | ADCC, PBMC killing (LDH), HCC1806, Maximum killing (%) [10]: 35.7%
